Legend:
[1] = molecular target: BG505 SOSIP.664-D7324 A316W trimer (unpurified, 293T) (HIV-1 (clade A, BG505)); assay: native gel or EMSA; BN-PAGE of unpurified Env proteins in 293T culture supernatants, Western blot with bNAb 2G12
[2] = molecular target: BG505 SOSIP.664-D7324 R308L trimer (unpurified, 293T) (HIV-1 (clade A, BG505)); assay: as above
[3] = molecular target: BG505 SOSIP.664-D7324 S306L trimer (unpurified, 293T) (HIV-1 (clade A, BG505)); assay: as above
[4] = molecular target: BG505 SOSIP.664-D7324 trimer (PGT145-purified, 293F) (HIV-1 (clade A, BG505)); assay: native gel or EMSA; BN-PAGE of PGT145-purified trimers, Coomassie Blue stain
[5] = molecular target: BG505 SOSIP.664-D7324 trimer (unpurified, 293T) (HIV-1 (clade A, BG505)); assay: native gel or EMSA; BN-PAGE of unpurified Env proteins in 293T culture supernatants, Western blot with bNAb 2G12
[6] = molecular target: BG505 SOSIP.v4.1 S306L/R308L-D7324 trimer (HIV-1 (clade A, BG505)); assay: native gel or EMSA; BN-PAGE of PGT145-purified trimers, Coomassie Blue stain
[7] = molecular target: BG505 SOSIP.v4.1-D7324 trimer (HIV-1 (clade A, BG505)); assay: as above
[8] = molecular target: BG505 SOSIP.v5.2 S306L/R308L-D7324 trimer (HIV-1 (clade A, BG505)); assay: as above
[9] = molecular target: BG505 SOSIP.v5.2-D7324 trimer (HIV-1 (clade A, BG505)); assay: as above

BG505 SOSIP.664-D7324 A316W trimer (unpurified, 293T) (complex)
stoichiometry N [1]: 3

BG505 SOSIP.664-D7324 R308L trimer (unpurified, 293T) (complex)
stoichiometry N [2]: 3

BG505 SOSIP.664-D7324 S306L trimer (unpurified, 293T) (complex)
stoichiometry N [3]: 3

BG505 SOSIP.664-D7324 trimer (PGT145-purified, 293F) (complex)
stoichiometry N [4]: 3

BG505 SOSIP.664-D7324 trimer (unpurified, 293T) (complex)
stoichiometry N [5]: 3

BG505 SOSIP.v4.1 S306L/R308L-D7324 trimer (complex)
stoichiometry N [6]: 3

BG505 SOSIP.v4.1-D7324 trimer (complex)
stoichiometry N [7]: 3

BG505 SOSIP.v5.2 S306L/R308L-D7324 trimer (complex)
stoichiometry N [8]: 3

BG505 SOSIP.v5.2-D7324 trimer (complex)
stoichiometry N [9]: 3

Reference: paper PMC5798299
